In patent US20220362145A1, “THERAPEUTIC HYDROGEL COMPOSITIONS” (THE UNIVERSITY OF BIRMINGHAM, priority 2018, published 2022):

Legend:
[1] = molecular target: T1, collagen type I (rat tail) (Rattus norvegicus, UniProt P02454+P02466); experiment: Collagen fibrillogenesis turbidity assay; type: biochemical
T1 construct: collagen type I (rat tail; Corning, UK); purchased Corning, UK; host or cells: rat tail (tissue-derived)
Method: Collagen fibrillogenesis: For the dose response curves, 75 µl of PBS was added to each well of a 96 well plate kept on ice. Varying hrDecorin doses were prepared by adding 400 μg/ml of hrDecorin to the first well and subsequently serial diluting (2-fold dilution) across the plate. Following dilution, a further 150 μl of PBS buffer was added to each well. Then, 75 μl of collagen type I (rat tail; Corning, UK) (800 μg/ml) was added to each well and incubated for 2 hours at 37° C. Subsequent absorbance readings were taken using a 405 nm plate reader. Each assay consisted of duplicate blank controls, and triplicate standard dilutions followed by triplicate sample dilutions. Kinetics of fibril formation were determined using a similar setup as the dose response, without serial dilution; incubating the samples within the plate reader, and taking data points every 2 minutes.
• Prepare diluent and reaction buffers by mixing sodium phosphate and sodium chloride and adjusting the pH to 7.4. • Add sample (Gellan fluid gel +Galacorin™ Galacorin only and Gellan only) to a 96 well plate and serial dilute using diluent buffer across the rows of the plate. • On ice, prepare collagen by mixing with cold water to a concentration of 0.8 mg/ml. • Add collagen to all wells. • Add reaction buffer to all wells and mix. • Incubate at 37° C. for 2 hours. • Read using a plate reader at 405 nm

fibrin gel = experiment: Matrix breakdown assay (fibrin gel); type: biochemical; conditions: trans-well above fibrin gel (8.5 mg/ml), 60° C.
Method: […] • Add 0.9 ml of gel to an Eppendorf. • To each gel add 0.1 ml of active in PBS. • Mix well using a vortex mixer. • Refrigerate for 24 hours before testing. • 0.5 ml of fibrin gel (8.5 mg/ml) was formed in the wells of a 24 well plate. • 0.5 ml of PBS was added to each well. • 0.1 ml of gel with active was added to a trans-well insert and placed above the fibrin gel. • Samples were incubated at 60° C. to activate the proteinase K. • Images were taken at various timepoints and compared to the control fibrin gel (pbs only) and fibrin gel with proteinase k added without a fluid gel carrier.

T1 sequence (P02454 152-1207 limits assumed): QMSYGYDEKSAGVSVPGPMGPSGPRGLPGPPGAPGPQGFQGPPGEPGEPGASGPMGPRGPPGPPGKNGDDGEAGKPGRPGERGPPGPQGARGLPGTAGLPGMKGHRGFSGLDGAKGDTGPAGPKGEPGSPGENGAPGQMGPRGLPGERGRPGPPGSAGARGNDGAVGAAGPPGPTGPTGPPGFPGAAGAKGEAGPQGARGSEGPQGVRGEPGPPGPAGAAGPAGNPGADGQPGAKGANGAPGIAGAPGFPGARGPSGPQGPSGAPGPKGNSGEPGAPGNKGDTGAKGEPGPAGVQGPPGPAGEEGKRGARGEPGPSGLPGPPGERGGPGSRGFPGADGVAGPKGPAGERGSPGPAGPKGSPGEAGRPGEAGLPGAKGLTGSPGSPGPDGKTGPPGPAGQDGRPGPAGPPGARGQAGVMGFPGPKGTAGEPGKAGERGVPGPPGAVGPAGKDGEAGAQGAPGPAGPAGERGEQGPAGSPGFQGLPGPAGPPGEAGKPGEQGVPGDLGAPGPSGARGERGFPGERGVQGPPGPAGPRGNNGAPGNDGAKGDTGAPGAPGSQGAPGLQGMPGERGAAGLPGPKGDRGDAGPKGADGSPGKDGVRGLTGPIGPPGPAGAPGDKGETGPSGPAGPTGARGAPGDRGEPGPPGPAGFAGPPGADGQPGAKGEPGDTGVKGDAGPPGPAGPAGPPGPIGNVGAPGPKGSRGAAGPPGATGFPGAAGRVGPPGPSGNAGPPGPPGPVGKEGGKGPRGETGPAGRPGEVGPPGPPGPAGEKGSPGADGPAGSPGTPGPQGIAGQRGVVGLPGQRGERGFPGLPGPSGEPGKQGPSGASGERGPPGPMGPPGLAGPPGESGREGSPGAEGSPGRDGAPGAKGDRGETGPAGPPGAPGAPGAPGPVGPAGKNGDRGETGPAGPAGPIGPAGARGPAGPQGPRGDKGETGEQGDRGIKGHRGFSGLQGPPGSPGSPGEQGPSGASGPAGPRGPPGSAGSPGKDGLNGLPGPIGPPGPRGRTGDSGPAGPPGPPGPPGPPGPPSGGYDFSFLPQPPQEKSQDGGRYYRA
T1 sequence (P02466 86-1125 limits assumed): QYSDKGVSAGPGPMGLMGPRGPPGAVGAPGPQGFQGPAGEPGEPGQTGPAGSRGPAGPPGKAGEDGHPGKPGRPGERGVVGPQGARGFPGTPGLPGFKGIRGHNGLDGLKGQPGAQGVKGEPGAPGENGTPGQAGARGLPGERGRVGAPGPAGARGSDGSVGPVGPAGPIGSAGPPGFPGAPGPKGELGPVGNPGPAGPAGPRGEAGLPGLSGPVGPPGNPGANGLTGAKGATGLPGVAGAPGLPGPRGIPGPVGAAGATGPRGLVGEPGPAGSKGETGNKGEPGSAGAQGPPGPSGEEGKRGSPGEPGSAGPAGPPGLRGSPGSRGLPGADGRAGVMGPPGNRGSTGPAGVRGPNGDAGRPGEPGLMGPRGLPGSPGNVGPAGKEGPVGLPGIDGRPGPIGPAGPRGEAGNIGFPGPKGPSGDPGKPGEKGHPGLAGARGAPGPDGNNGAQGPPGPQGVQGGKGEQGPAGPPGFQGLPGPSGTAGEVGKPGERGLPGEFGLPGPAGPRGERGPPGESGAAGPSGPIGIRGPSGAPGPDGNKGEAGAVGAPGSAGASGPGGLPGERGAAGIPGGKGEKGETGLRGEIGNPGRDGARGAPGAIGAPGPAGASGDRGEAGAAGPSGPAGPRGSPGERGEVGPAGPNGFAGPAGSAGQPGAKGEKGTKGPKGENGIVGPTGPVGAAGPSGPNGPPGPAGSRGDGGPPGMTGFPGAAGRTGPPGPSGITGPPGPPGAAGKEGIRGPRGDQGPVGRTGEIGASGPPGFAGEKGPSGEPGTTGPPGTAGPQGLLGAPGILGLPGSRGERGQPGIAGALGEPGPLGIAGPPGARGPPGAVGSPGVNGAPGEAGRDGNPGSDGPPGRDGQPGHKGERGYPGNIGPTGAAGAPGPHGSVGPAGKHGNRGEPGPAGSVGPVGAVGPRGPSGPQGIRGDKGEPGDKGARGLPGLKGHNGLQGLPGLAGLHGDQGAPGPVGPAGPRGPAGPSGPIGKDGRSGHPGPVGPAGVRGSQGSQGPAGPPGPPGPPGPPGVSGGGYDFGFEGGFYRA

Row | Molecule | effect on collagen fibrillogenesis (fibril formation) ([1]; turbidity at 405 nm vs collagen only control) | critical concentration above which fibrillogenesis is inhibited ([1]; turbidity at 405 nm, 2 hours at 37° C.) | concentration at which minimum turbidity is achieved ([1]; turbidity at 405 nm, no further reduction above) | breakdown of fibrin gel (fibrin gel)
1 | hrDecorin: human recombinant decorin sold by Catalent Pharma Solutions under the name Galacorin™ (protein, UniProt P07585 31-359, looked up) Decorin: DEASGIGPEVPDDRDFEPSLGPVCPFRCQCHLRVVQCSDLGLDKVPKDLPPDTTLLDLQNNKITEIKDGDFKNLKNLHALILVNNKISKVSPGAFTPLVKLERLYLSKNQLKELPEKMPKTLQELRAHENEITKVRKVTFNGLNQMIVIELGTNPLKSSGIENGAFQGMKKLSYIRIADTNITSIPQGLPPSLTELHLDGNKISRVDAASLKGLNNLAKLGLSFNSISAVDNGSLANTPHLRELHLDNNKLTRVPGGLAEHKYIQVVYLHNNNISVVGSSDFCPPGHNTKKASYSGVSLFSNPVQYWEIQPSTFRCVYVRSAIQLGNYK | slowing the onset of fibrillogenesis | 0.5 μg/ml | > 10000 ng/mL | 
2 | Proteinase K: extracellular matrix remodelling agent proteinase K (protein, UniProt P06873 106-384, looked up) Proteinase K: AAQTNAPWGLARISSTSPGTSTYYYDESAGQGSCVYVIDTGIEASHPEFEGRAQMVKTYYYSSRDGNGHGTHCAGTVGSRTYGVAKKTQLFGVKVLDDNGSGQYSTIIAGMDFVASDKNNRNCPKGVVASLSLGGGYSSSVNSAAARLQSSGVMVAVAAGNNNADARNYSPASEPSVCTVGASDRYDRRSSFSNYGSVLDIFGPGTSILSTWIGGSTRSISGTSMATPHVAGLAAYLMTLGKTTAASACRYIADTANKGDLSNIPFGTVNLLAYNNYQA |  |  |  | faster
